Substitutions are numbered along the chain they refer to. Values belong to the binder of their own block, whether it stands above or below them.
Key:
[1] = molecular target: T1, TNF-R1 (a protein having the amino acid sequence, Accession No. M58286 registered at GENBANK) (UniProt P19438 30-211, limits assumed); test: SPR (BIACORE 2000), receptor on sensor tip; grade 3 = 0.5 to 2 times that of recombinant TNF-α
T1 construct: also called TNF receptor having a molecular weight of 55 kilo daltons
T1 sequence (looked up): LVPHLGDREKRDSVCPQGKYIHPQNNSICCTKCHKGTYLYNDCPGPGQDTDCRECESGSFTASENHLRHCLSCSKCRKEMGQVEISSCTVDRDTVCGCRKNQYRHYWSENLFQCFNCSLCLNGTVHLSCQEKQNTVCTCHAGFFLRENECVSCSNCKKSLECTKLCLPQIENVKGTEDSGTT
Text: (§1) Using the above detector based on surface plasmon resonance effect again, the resulting clones binding to TNF-R1 (or TNF-R2) were subjected to the remaining sensor tip conjugated with TNF-R2 (or TNF-R1) to measure receptor binding affinity and select clones having a variation of receptor binding affinity. […] The resulting DNAs were digested with restrict enzymes NdeI and BamHI to obtain DNA fragments. The resulting DNA fragments were introduced into a plasmid vector containing T7 promoter region, T7 terminator region, ampicillin resistant gene region and ColE1/Ori region (product name “pET-3a”, manufactured by “Novagen®” (EMD Biosciences, Inc.)) at the position of the above restriction sites. The resulting plasmid was introduced into E. coli BL21DE3 strain to obtain a transformed E. coli for producing the TNF mutant proteins. The obtained transformed E. coli was cultured according to usual method and centrifuged to collect E. coli pellet. The resulting pellet was washed twice with TES buffer (pH 8.0) (20 mM Tris-HCl, 10 mM ethylene diamine tetraacetic acid and 0.5 M sodium chloride) and admixed with TES buffer (pH 8.0) containing 0.2 mg/ml lysozyme. The resulting suspension was sonicated according to usual manner, and centrifuged to collect a precipitate containing the produced TNF mutant protein. The resulting precipitate was treated three times in a manner of admixing with TES buffer containing 1 (w/w) % Triton X-100, removed from supernatant by centrifuging, admixed with 50 mM Tris-HCl (pH 7.0) containing 8 M guanidine hydrochloride and 50 mM dithiothreitol, with stirring for 16 hours at ambient temperature under shielded condition, and centrifuged to collect a supernatant. The resulting supernatant was gently admixed with 100 time volumes of a aqueous solution containing 1 M Tris, 0.9 (w/v) % sodium chloride, 0.4 M L-arginine chloride, 2.5 mM reduced glutathione, 0.5 mM oxidized glutathione and 0.05 (w/v) % Tween 20, and kept at 4° C. for 16 hours.

[2] = molecular target: T2, TNF-R2 (a protein having the amino acid sequence, Accession No. M55994 registered at GENBANK) (UniProt P20333 23-257, limits assumed); test: as above
T2 construct: also called TNF receptor with 75 kilo daltons
T2 sequence (looked up): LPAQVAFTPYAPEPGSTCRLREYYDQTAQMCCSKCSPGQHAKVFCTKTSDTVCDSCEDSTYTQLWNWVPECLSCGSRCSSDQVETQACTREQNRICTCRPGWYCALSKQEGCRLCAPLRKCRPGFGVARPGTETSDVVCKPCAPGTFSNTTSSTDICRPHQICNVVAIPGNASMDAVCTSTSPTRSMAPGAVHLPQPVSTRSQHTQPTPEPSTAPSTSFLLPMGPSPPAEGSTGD
Text: as §1

[3] = molecular target: T2, TNF-R2 (a protein having the amino acid …); test: SPR (BIACORE 2000), receptor on sensor tip; grade 2 = 0.5 to 0.1 time that of recombinant TNF-α
Text: as §1

[4] = molecular target: T1, TNF-R1 (a protein having the amino acid …); test: as above
Text: as §1

[5] = molecular target: T2, TNF-R2 (a protein having the amino acid …); test: SPR (BIACORE 2000), receptor on sensor tip; grade 0 = weakened to 0.001 or less of that of recombinant TNF-α
Text: as §1

[6] = molecular target: T1, TNF-R1 (a protein having the amino acid …); test: SPR (BIACORE 2000), receptor on sensor tip; grade 4 = two times or more that of recombinant TNF-α
Text: as §1

[7] = molecular target: T2, TNF-R2 (a protein having the amino acid …); test: SPR (BIACORE 2000), receptor on sensor tip; grade 1 = 0.001 to 0.1 time that of recombinant TNF-α
Text: as §1

binding affinity relative to recombinant TNF-α [1]: 0.5 to 2 fold
binding affinity relative to recombinant TNF-α [2]: 0.5 to 2 fold
B1: lysine-replaced human TNF (ligand)
chain: VRSSSRTPSDMPVAHVVANPQAEGQLQWLNRRANALLANGVELRDNQLVVPSEGLYLIYSQVLFSGQGCPSTHVLLTHTISRIAVSYQTPVNLLSAIRSPCQRETPEGAEANPWYEPIYLGGVFQLEPGDRLSAEINRPDYLDFAESGQVYFGIIAL
notes: Parent of all clones; also called Lysine-replaced TNF; lysine-replaced mutant

binding affinity relative to recombinant TNF-α [3]: 0.1 to 0.5 fold
binding affinity relative to recombinant TNF-α [1]: 0.5 to 2 fold
B2: TNF mutant protein of clone No. 34 (ligand)
chain: B1 chain with A84S, V85A, S86D, Q88P, T89H
notes: Mutant of lysine-replaced TNF, made in E. coli

binding affinity relative to recombinant TNF-α [4]: 0.1 to 0.5 fold
binding affinity relative to recombinant TNF-α [2]: 0.5 to 2 fold
B3: TNF mutant protein of clone No. 14 (ligand)
chain: B1 chain with E146N, S147D
notes: as for B2

binding affinity relative to recombinant TNF-α (grade) [5]: ≤ 0.001 times that of recombinant TNF-α
binding affinity relative to recombinant TNF-α [1]: 0.5 to 2 fold
B4: TNF mutant protein of clone No. 5 (ligand)
chain: B1 chain with L29R, R31S, R32H, A145S, E146G, S147T
notes: as for B2

binding affinity relative to recombinant TNF-α [3]: 0.1 to 0.5 fold
binding affinity relative to recombinant TNF-α [6]: ≥ 2 fold
B5: TNF mutant protein of clone No. 32 (ligand)
chain: B1 chain with A84T, V85D, S86R, Q88S, T89S
notes: as for B2

binding affinity relative to recombinant TNF-α [3]: 0.1 to 0.5 fold
binding affinity relative to recombinant TNF-α [1]: 0.5 to 2 fold
B6: TNF mutant protein of clone No. 30 (ligand)
chain: B1 chain with A84T, V85P, S86G, Q88P, T89S
notes: as for B2

binding affinity relative to recombinant TNF-α [7]: 0.001 to 0.1 fold
binding affinity relative to recombinant TNF-α [6]: ≥ 2 fold
B7: TNF mutant protein of clone No. 25 (ligand)
chain: B1 chain with A84S, V85K, S86T, Q88S, T89H
notes: as for B2

binding affinity relative to recombinant TNF-α [6]: ≥ 2 fold
binding affinity relative to recombinant TNF-α [2]: 0.5 to 2 fold
B8: TNF mutant protein of clone No. 31 (ligand)
chain: B1 chain with A84S, V85K, S86T, Q88S, T89H
notes: as for B2

binding affinity relative to recombinant TNF-α [7]: 0.001 to 0.1 fold
binding affinity relative to recombinant TNF-α [6]: ≥ 2 fold
B9: TNF mutant protein of clone No. 19 (ligand)
chain: B1 chain with A84S, V85Y, S86N, Q88N, T89G
notes: as for B2

binding affinity relative to recombinant TNF-α [7]: 0.001 to 0.1 fold
binding affinity relative to recombinant TNF-α [6]: ≥ 2 fold
B10: TNF mutant protein of clone No. 24 (ligand)
chain: B1 chain with A84T, V85H, S86K, Q88P, T89Q
notes: as for B2

binding affinity relative to recombinant TNF-α [7]: 0.001 to 0.1 fold
binding affinity relative to recombinant TNF-α [6]: ≥ 2 fold
B11: TNF mutant protein of clone No. 21 (ligand)
chain: B1 chain with A84T, V85S, S86A, Q88G, T89P
notes: as for B2

binding affinity relative to recombinant TNF-α [3]: 0.1 to 0.5 fold
binding affinity relative to recombinant TNF-α [1]: 0.5 to 2 fold
B12: TNF mutant protein of clone No. 2 (ligand)
chain: B1 chain with L29T, R31G, R32Y
notes: as for B2

binding affinity relative to recombinant TNF-α [4]: 0.1 to 0.5 fold
binding affinity relative to recombinant TNF-α [7]: 0.001 to 0.1 fold
B13: TNF mutant protein of clone No. 15 (ligand)
chain: B1 chain with A84T, V85N, S86H, Q88S, T89N

binding affinity relative to recombinant TNF-α [7]: 0.001 to 0.1 fold
binding affinity relative to recombinant TNF-α [6]: ≥ 2 fold
B14: TNF mutant protein of clone No. 23 (ligand)
chain: B1 chain with A84T, V85T, S86A, Q88S, T89G
notes: as for B2

binding affinity relative to recombinant TNF-α [7]: 0.001 to 0.1 fold
binding affinity relative to recombinant TNF-α [6]: ≥ 2 fold
B15: TNF mutant protein of clone No. 33 (ligand)
chain: B1 chain with A84N, V85H, S86R, T89D
notes: as for B2

binding affinity relative to recombinant TNF-α [3]: 0.1 to 0.5 fold
binding affinity relative to recombinant TNF-α [6]: ≥ 2 fold
B16: TNF mutant protein of clone No. 16 (ligand)
chain: B1 chain with A84S, V85S, S86T, Q88P, T89D
notes: as for B2

binding affinity relative to recombinant TNF-α [4]: 0.1 to 0.5 fold
binding affinity relative to recombinant TNF-α [7]: 0.001 to 0.1 fold
B17: TNF mutant protein of clone No. 9 (ligand)
chain: B1 chain with L29S, R31P, R32M, E146N, S147P
notes: as for B2

binding affinity relative to recombinant TNF-α [3]: 0.1 to 0.5 fold
binding affinity relative to recombinant TNF-α [1]: 0.5 to 2 fold
B18: TNF mutant protein of clone No. 27 (ligand)
chain: B1 chain with A84T, V85P, S86A, Q88P, T89R
notes: as for B2

binding affinity relative to recombinant TNF-α [3]: 0.1 to 0.5 fold
binding affinity relative to recombinant TNF-α [1]: 0.5 to 2 fold
B19: TNF mutant protein of clone No. 20 (ligand)
chain: B1 chain with A84S, V85S, S86A, Q88A, T89S
notes: as for B2

binding affinity relative to recombinant TNF-α [4]: 0.1 to 0.5 fold
binding affinity relative to recombinant TNF-α [7]: 0.001 to 0.1 fold
B20: TNF mutant protein of clone No. 8 (ligand)
chain: B1 chain with L29R, R31E, R32H, A145N, E146N, S147A
notes: as for B2

binding affinity relative to recombinant TNF-α [7]: 0.001 to 0.1 fold
binding affinity relative to recombinant TNF-α [6]: ≥ 2 fold
B21: TNF mutant protein of clone No. 26 (ligand)
chain: B1 chain with A84S, V85S, S86H, Q88R, T89F
notes: as for B2

binding affinity relative to recombinant TNF-α [4]: 0.1 to 0.5 fold
binding affinity relative to recombinant TNF-α [7]: 0.001 to 0.1 fold
B22: TNF mutant protein of clone No. 7 (ligand)
chain: B1 chain with L29H, R31N, R32T, A145D, E146S, S147N
notes: as for B2

binding affinity relative to recombinant TNF-α (grade) [5]: ≤ 0.001 times that of recombinant TNF-α
binding affinity relative to recombinant TNF-α [1]: 0.5 to 2 fold
B23: TNF mutant protein of clone No. 4 (ligand)
chain: B1 chain with L29K, R31A, R32G, E146S, S147T
notes: as for B2
